T1: EsCas13d, nuclease-dead (Eubacterium siraeum, UniProt B0MS50, R295A;H300A;R849A;H854A)
T1 sequence: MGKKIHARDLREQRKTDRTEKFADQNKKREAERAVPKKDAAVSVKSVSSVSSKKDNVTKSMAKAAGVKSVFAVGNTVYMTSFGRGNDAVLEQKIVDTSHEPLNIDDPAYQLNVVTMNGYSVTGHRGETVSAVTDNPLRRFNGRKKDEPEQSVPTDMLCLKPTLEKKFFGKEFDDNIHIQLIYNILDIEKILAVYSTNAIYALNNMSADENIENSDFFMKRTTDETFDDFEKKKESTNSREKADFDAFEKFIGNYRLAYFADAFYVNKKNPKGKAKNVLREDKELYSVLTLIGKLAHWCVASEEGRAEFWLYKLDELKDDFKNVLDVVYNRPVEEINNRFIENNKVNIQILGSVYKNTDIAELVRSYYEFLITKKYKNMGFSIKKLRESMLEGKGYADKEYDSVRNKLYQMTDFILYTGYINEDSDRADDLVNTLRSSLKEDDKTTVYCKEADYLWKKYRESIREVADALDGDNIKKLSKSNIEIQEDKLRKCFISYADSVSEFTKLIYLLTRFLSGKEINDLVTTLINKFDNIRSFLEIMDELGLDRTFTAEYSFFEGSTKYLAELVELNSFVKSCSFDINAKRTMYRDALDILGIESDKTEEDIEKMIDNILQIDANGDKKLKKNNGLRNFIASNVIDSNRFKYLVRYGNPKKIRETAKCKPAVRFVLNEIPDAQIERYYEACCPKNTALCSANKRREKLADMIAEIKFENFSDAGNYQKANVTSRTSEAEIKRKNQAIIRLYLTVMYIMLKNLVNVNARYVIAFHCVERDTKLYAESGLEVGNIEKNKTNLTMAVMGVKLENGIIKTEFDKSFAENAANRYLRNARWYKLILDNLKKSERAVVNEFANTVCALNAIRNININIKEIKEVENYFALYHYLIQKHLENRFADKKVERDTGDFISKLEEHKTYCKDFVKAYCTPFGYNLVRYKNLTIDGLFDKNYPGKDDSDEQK


Target: T1, EsCas13d, nuclease-dead
Test: crRNA (strand 1, pre-loaded); Mg2+; 40 mM Tris-HCl pH 7.5, 150 mM NaCl, 6 mM MgCl2, 1 mM DTT, 0.1% Tween-20, 0.2 mg/ml BSA; 25 C; 10 min per concentration, then washed
Settings: tags: His6-TwinStrep-SUMO cleaved; N-terminal SNAP kept (SNAP-Surface 488); label: 3' end held by stalled T7 RNA polymerase

Binder	Kd [nM]
target 3 insA 3' of 22,insU 3' of 4 (mixed) RNA 1: CACCCGUGCAAAAUUGCAGGGGUCUAAAACGACCUGAAUAUUUCAGAUCAAA RNA 2: GGGAAUGGAUCCACAUCUACGAAUUCGUUUAUUGAUCUGAAAUAUUCAGUGUCUGCAGAUCGGAAGAGCACACGU	4.56 ± 0.52
target 3 G3U,U22A (mixed) RNA 1: CACCCGUGCAAAAUUGCAGGGGUCUAAAACGACCUGAAUAUUUCAGAUCAAA RNA 2: GGGAAUGGAUCCACAUCUACGAAUUCGUUAUUGAUCUGAAAUAUUCAGUUCUGCAGAUCGGAAGAGCACACGU	20.6 ± 2.75
target 3 U2A,A12C (mixed) RNA 1: CACCCGUGCAAAAUUGCAGGGGUCUAAAACGACCUGAAUAUUUCAGAUCAAA RNA 2: GGGAAUGGAUCCACAUCUACGAAUUCGUUUUUGAUCUGACAUAUUCAGGACUGCAGAUCGGAAGAGCACACGU	33 ± 5.5
target 3 insU 3' of 22,insG 3' of 5 (mixed) RNA 1: CACCCGUGCAAAAUUGCAGGGGUCUAAAACGACCUGAAUAUUUCAGAUCAAA RNA 2: GGGAAUGGAUCCACAUCUACGAAUUCGUUUUUUGAUCUGAAAUAUUCAGGGUCUGCAGAUCGGAAGAGCACACGU	17.4 ± 1.7
target 3 insA 3' of 21,insG 3' of 2 (mixed) RNA 1: CACCCGUGCAAAAUUGCAGGGGUCUAAAACGACCUGAAUAUUUCAGAUCAAA RNA 2: GGGAAUGGAUCCACAUCUACGAAUUCGUUUUAUGAUCUGAAAUAUUCAGGUGCUGCAGAUCGGAAGAGCACACGU	39.8 ± 3.75
target 3 insA 3' of 4,insA 3' of 3 (mixed) RNA 1: CACCCGUGCAAAAUUGCAGGGGUCUAAAACGACCUGAAUAUUUCAGAUCAAA RNA 2: GGGAAUGGAUCCACAUCUACGAAUUCGUUUUUGAUCUGAAAUAUUCAGAGAUCUGCAGAUCGGAAGAGCACACGU	50 ± 7.5
target 3 A5U,U22A (mixed) RNA 1: CACCCGUGCAAAAUUGCAGGGGUCUAAAACGACCUGAAUAUUUCAGAUCAAA RNA 2: GGGAAUGGAUCCACAUCUACGAAUUCGUUAUUGAUCUGAAAUAUUCUGGUCUGCAGAUCGGAAGAGCACACGU	48 ± 10
target 3 A9G,U21A (mixed) RNA 1: CACCCGUGCAAAAUUGCAGGGGUCUAAAACGACCUGAAUAUUUCAGAUCAAA RNA 2: GGGAAUGGAUCCACAUCUACGAAUUCGUUUAUGAUCUGAAAUGUUCAGGUCUGCAGAUCGGAAGAGCACACGU	95.5 ± 22.5
target 3 A5G,U8G (mixed) RNA 1: CACCCGUGCAAAAUUGCAGGGGUCUAAAACGACCUGAAUAUUUCAGAUCAAA RNA 2: GGGAAUGGAUCCACAUCUACGAAUUCGUUUUUGAUCUGAAAUAGUCGGGUCUGCAGAUCGGAAGAGCACACGU	65.5 ± 7.5
target 3 A5G,U8C (mixed) RNA 1: CACCCGUGCAAAAUUGCAGGGGUCUAAAACGACCUGAAUAUUUCAGAUCAAA RNA 2: GGGAAUGGAUCCACAUCUACGAAUUCGUUUUUGAUCUGAAAUACUCGGGUCUGCAGAUCGGAAGAGCACACGU	86.5 ± 13
target 3 del5,del6 (mixed) RNA 1: CACCCGUGCAAAAUUGCAGGGGUCUAAAACGACCUGAAUAUUUCAGAUCAAA RNA 2: GGGAAUGGAUCCACAUCUACGAAUUCGUUUUUGAUCUGAAAUAUUGGUCUGCAGAUCGGAAGAGCACACGU	72 ± 9
target 3 insC 3' of 22,insC 3' of 4 (mixed) RNA 1: CACCCGUGCAAAAUUGCAGGGGUCUAAAACGACCUGAAUAUUUCAGAUCAAA RNA 2: GGGAAUGGAUCCACAUCUACGAAUUCGUUUCUUGAUCUGAAAUAUUCAGCGUCUGCAGAUCGGAAGAGCACACGU	39 ± 12
target 3 U2G,U21A (mixed) RNA 1: CACCCGUGCAAAAUUGCAGGGGUCUAAAACGACCUGAAUAUUUCAGAUCAAA RNA 2: GGGAAUGGAUCCACAUCUACGAAUUCGUUUAUGAUCUGAAAUAUUCAGGGCUGCAGAUCGGAAGAGCACACGU	36.5 ± 7
target 3 insC 3' of 8,insU 3' of 3 (mixed) RNA 1: CACCCGUGCAAAAUUGCAGGGGUCUAAAACGACCUGAAUAUUUCAGAUCAAA RNA 2: GGGAAUGGAUCCACAUCUACGAAUUCGUUUUUGAUCUGAAAUAUCUCAGGUUCUGCAGAUCGGAAGAGCACACGU	59 ± 25.5
target 3 G4A (mixed) RNA 1: CACCCGUGCAAAAUUGCAGGGGUCUAAAACGACCUGAAUAUUUCAGAUCAAA RNA 2: GGGAAUGGAUCCACAUCUACGAAUUCGUUUUUGAUCUGAAAUAUUCAAGUCUGCAGAUCGGAAGAGCACACGU	4.89 ± 0.35
target 3 insG 3' of 7,insG 3' of 6 (mixed) RNA 1: CACCCGUGCAAAAUUGCAGGGGUCUAAAACGACCUGAAUAUUUCAGAUCAAA RNA 2: GGGAAUGGAUCCACAUCUACGAAUUCGUUUUUGAUCUGAAAUAUUGCGAGGUCUGCAGAUCGGAAGAGCACACGU	24.9 ± 1.9
target 3 C6U,U22C (mixed) RNA 1: CACCCGUGCAAAAUUGCAGGGGUCUAAAACGACCUGAAUAUUUCAGAUCAAA RNA 2: GGGAAUGGAUCCACAUCUACGAAUUCGUUCUUGAUCUGAAAUAUUUAGGUCUGCAGAUCGGAAGAGCACACGU	14.5 ± 1.85
target 3 C6A,U22G (mixed) RNA 1: CACCCGUGCAAAAUUGCAGGGGUCUAAAACGACCUGAAUAUUUCAGAUCAAA RNA 2: GGGAAUGGAUCCACAUCUACGAAUUCGUUGUUGAUCUGAAAUAUUAAGGUCUGCAGAUCGGAAGAGCACACGU	108 ± 25
target 3 insU 3' of 11,insU 3' of 4 (mixed) RNA 1: CACCCGUGCAAAAUUGCAGGGGUCUAAAACGACCUGAAUAUUUCAGAUCAAA RNA 2: GGGAAUGGAUCCACAUCUACGAAUUCGUUUUUGAUCUGAAAUUAUUCAGUGUCUGCAGAUCGGAAGAGCACACGU	23.6 ± 4.15
target 3 insU 3' of 11,insA 3' of 6 (mixed) RNA 1: CACCCGUGCAAAAUUGCAGGGGUCUAAAACGACCUGAAUAUUUCAGAUCAAA RNA 2: GGGAAUGGAUCCACAUCUACGAAUUCGUUUUUGAUCUGAAAUUAUUCAAGGUCUGCAGAUCGGAAGAGCACACGU	63 ± 8.5
target 3 C1G,U2C (mixed) RNA 1: CACCCGUGCAAAAUUGCAGGGGUCUAAAACGACCUGAAUAUUUCAGAUCAAA RNA 2: GGGAAUGGAUCCACAUCUACGAAUUCGUUUUUGAUCUGAAAUAUUCAGGCGUGCAGAUCGGAAGAGCACACGU	17.1 ± 3.8
target 3 insC 3' of 11,insG 3' of 5 (mixed) RNA 1: CACCCGUGCAAAAUUGCAGGGGUCUAAAACGACCUGAAUAUUUCAGAUCAAA RNA 2: GGGAAUGGAUCCACAUCUACGAAUUCGUUUUUGAUCUGAAACUAUUCAGGGUCUGCAGAUCGGAAGAGCACACGU	86.5 ± 29
target 3 insA 3' of 21,insA 3' of 3 (mixed) RNA 1: CACCCGUGCAAAAUUGCAGGGGUCUAAAACGACCUGAAUAUUUCAGAUCAAA RNA 2: GGGAAUGGAUCCACAUCUACGAAUUCGUUUUAUGAUCUGAAAUAUUCAGGAUCUGCAGAUCGGAAGAGCACACGU	~69
target 3 insC 3' of 9,insU 3' of 4 (mixed) RNA 1: CACCCGUGCAAAAUUGCAGGGGUCUAAAACGACCUGAAUAUUUCAGAUCAAA RNA 2: GGGAAUGGAUCCACAUCUACGAAUUCGUUUUUGAUCUGAAAUACUUCAGUGUCUGCAGAUCGGAAGAGCACACGU	41.5 ± 6
target 3 del4,del22 (mixed) RNA 1: CACCCGUGCAAAAUUGCAGGGGUCUAAAACGACCUGAAUAUUUCAGAUCAAA RNA 2: GGGAAUGGAUCCACAUCUACGAAUUCGUUUUGAUCUGAAAUAUUCAGUCUGCAGAUCGGAAGAGCACACGU	16.6 ± 2.3
target 1 insU 3' of 17,insG 3' of 7 (mixed) RNA 1: CACCCGUGCAAAAAUGCAGGGGUCUAAAACUGAGCGGAUAACCUCUCUAUGG RNA 2: GGGAAUGGAUCCACAUCUACGAAUUCGUACCAUAGUAGAGGUUAUCGCGCUCACCGAGAUCGGAAGAGCACACGU	13.7 ± 0.6
target 1 U10G,A16C (mixed) RNA 1: CACCCGUGCAAAAAUGCAGGGGUCUAAAACUGAGCGGAUAACCUCUCUAUGG RNA 2: GGGAAUGGAUCCACAUCUACGAAUUCGUACCAUAGCGAGGUGAUCCGCUCACCGAGAUCGGAAGAGCACACGU	57 ± 10
target 1 insG 3' of 9,insA 3' of 4 (mixed) RNA 1: CACCCGUGCAAAAAUGCAGGGGUCUAAAACUGAGCGGAUAACCUCUCUAUGG RNA 2: GGGAAUGGAUCCACAUCUACGAAUUCGUACCAUAGAGAGGUUAGUCCGCAUCACCGAGAUCGGAAGAGCACACGU	9.6 ± 1
